Reference: US20240132578A1

Experiments:
Assay in all cases: cell-based or functional assay
[1] = target: aMLV envelope (negative control)
[2] = target: HIV-1 Env of isolate NL43 (positive control) (HIV-1)
[3] = target: HIV-1 Env of isolate 92UG024 (Clade D) (HIV-1)
[4] = target: HIV-1 Env of isolate IAVI-C22 (Clade C) (HIV-1)
[5] = target: HIV-1 Env of isolate IAVI-C18 (Clade C) (HIV-1)
[6] = target: HIV-1 Env of isolate CMU02 (CRF01_AE) (HIV-1)
[7] = target: HIV-1 93UG077 envelope glycoprotein (Env) on pseudovirus (HIV-1)
[8] = target: HIV-1 92UG005 envelope glycoprotein (Env) on pseudovirus (HIV-1)
[9] = target: HIV-1 92UG024 envelope glycoprotein (Env) on pseudovirus (HIV-1)
[10] = target: HIV-1 APV17 envelope glycoprotein (Env) on pseudovirus (HIV-1)
[11] = target: HIV-1 APV6 envelope glycoprotein (Env) on pseudovirus (HIV-1)
[12] = target: HIV-1 MGRM-D-001 envelope glycoprotein (Env) on pseudovirus (HIV-1)
[13] = target: HIV-1 MGRM-C-027 envelope glycoprotein (Env) on pseudovirus (HIV-1)
[14] = target: HIV-1 MGRM-C-028 envelope glycoprotein (Env) on pseudovirus (HIV-1)
[15] = target: HIV-1 CMU02 envelope glycoprotein (Env) on pseudovirus (HIV-1)
[16] = target: aMLV envelope protein on pseudovirus (negative control virus)
[17] = target: HIV-1 93IN905 envelope protein (Env) on pseudotyped virus (HIV-1 strain 93IN905)
[18] = target: HIV-1 Env of pseudovirus MGRM-F1-013 (clade F) (HIV-1)
[19] = target: HIV-1 94UG103 envelope protein (Env) on pseudotyped virus (HIV-1 strain 94UG103)
[20] = target: HIV-1 IAVI_C22 envelope protein (Env) on pseudotyped virus (HIV-1 strain IAVI C22)
[21] = target: HIV-1 JR-CSF envelope protein (Env) on pseudotyped virus (HIV-1 isolate JR-CSF) (UniProt P20871)
[22] = target: HIV-1 92TH021 envelope protein (Env) on pseudotyped virus (HIV-1 strain 92TH021)
[23] = target: HIV-1 JR-CSF Env I323A (HIV-1 (isolate JR-CSF, clade B)) (UniProt P20871)
[24] = target: HIV-1 JR-CSF Env K305A (HIV-1 (isolate JR-CSF, clade B)) (UniProt P20871)

4E10 (antibody)
IC90 (neutralization of pseudovirus) [1]: > 50 µg/mL
IC90 (neutralization of pseudovirus) [2]: 29.6 µg/mL
IC90 (neutralization of pseudovirus) [3]: 23.7 µg/mL
IC90 (neutralization of pseudovirus) [4]: 16.4 µg/mL
IC90 (neutralization of pseudovirus) [5]: > 50 µg/mL
IC90 (neutralization of pseudovirus) [6]: 13.4 µg/mL

PGT-143 (4980_N08) (antibody)
IC50, pseudovirus neutralization [7]: > 10 µg/mL
IC50, pseudovirus neutralization [8]: > 10 µg/mL
IC50, pseudovirus neutralization [9]: > 10 µg/mL
IC50, pseudovirus neutralization [10]: 0.618 µg/mL
IC50, pseudovirus neutralization [11]: 4.43 µg/mL
IC50, pseudovirus neutralization [12]: > 10 µg/mL
IC50, pseudovirus neutralization [13]: 0.505 µg/mL
IC50, pseudovirus neutralization [14]: 1.82 µg/mL
IC50, pseudovirus neutralization [15]: > 10 µg/mL
IC50, pseudovirus neutralization [16]: > 10 µg/mL

PGT-142 (4995_E20) (antibody)
IC50, pseudovirus neutralization [7]: > 10 µg/mL
IC50, pseudovirus neutralization [8]: > 10 µg/mL
IC50, pseudovirus neutralization [9]: > 10 µg/mL
IC50, pseudovirus neutralization [10]: 0.393 µg/mL
IC50, pseudovirus neutralization [11]: 5.42 µg/mL
IC50, pseudovirus neutralization [12]: > 10 µg/mL
IC50, pseudovirus neutralization [13]: 0.272 µg/mL
IC50, pseudovirus neutralization [14]: 1.23 µg/mL
IC50, pseudovirus neutralization [15]: > 10 µg/mL
IC50, pseudovirus neutralization [16]: > 10 µg/mL

1496_C09 (PG9) (TCN-109) (antibody)
IC50, Neutralizing Antibody Assay, Virus/Ab Incubation 1 hour [17]: 0.144 µg/mL
IC50, Neutralizing Antibody Assay, Virus/Ab Incubation 18 hour [17]: 0.0619 µg/mL
IC50 [18]: 0.56 µg/mL
IC50, Neutralizing Antibody Assay, Virus/Ab Incubation 1 hour [19]: 0.334 µg/mL
IC50, Neutralizing Antibody Assay, Virus/Ab Incubation 18 hour [19]: 0.0942 µg/mL
IC50, Neutralizing Antibody Assay, Virus/Ab Incubation 1 hour [20]: 24.9 µg/mL
IC50, Neutralizing Antibody Assay, Virus/Ab Incubation 18 hour [20]: 2.11 µg/mL
IC50, Neutralizing Antibody Assay, Virus/Ab Incubation 1 hour [21]: < 0.0025 µg/mL
IC50, Neutralizing Antibody Assay, Virus/Ab Incubation 18 hour [21]: < 0.0025 µg/mL
IC90 (neutralization of pseudovirus) [5]: 0.866 µg/mL
IC50, Neutralizing Antibody Assay, Virus/Ab Incubation 1 hour [22]: 0.0612 µg/mL
IC50, Neutralizing Antibody Assay, Virus/Ab Incubation 18 hour [22]: 0.0571 µg/mL

b12 (antibody)
IC50 [18]: > 50 µg/mL
IC90 (neutralization of pseudovirus) [1]: > 50 µg/mL
IC90 (neutralization of pseudovirus) [2]: 0.28 µg/mL
IC90 (neutralization of pseudovirus) [3]: > 50 µg/mL
IC90 (neutralization of pseudovirus) [4]: 29.6 µg/mL
IC90 (neutralization of pseudovirus) [5]: > 50 µg/mL
IC90 (neutralization of pseudovirus) [6]: 34.2 µg/mL

5114_A19 (PGT-128) (antibody)
Fold IC50 increase relative to wild-type [23]: 3 fold
Fold IC50 increase relative to wild-type [24]: 1.8 fold

1495_C14 (PGC14) (antibody)
IC50, Neutralizing Antibody Assay, Virus/Ab Incubation 1 hour [17]: > 50 µg/mL
IC50, Neutralizing Antibody Assay, Virus/Ab Incubation 18 hour [17]: 0.146 µg/mL
IC50 [18]: 6 µg/mL
IC50, Neutralizing Antibody Assay, Virus/Ab Incubation 1 hour [19]: > 50 µg/mL
IC50, Neutralizing Antibody Assay, Virus/Ab Incubation 18 hour [19]: > 50 µg/mL
IC50, Neutralizing Antibody Assay, Virus/Ab Incubation 1 hour [20]: > 50 µg/mL
IC50, Neutralizing Antibody Assay, Virus/Ab Incubation 18 hour [20]: 13.4 µg/mL
IC50, Neutralizing Antibody Assay, Virus/Ab Incubation 1 hour [21]: > 50 µg/mL
IC50, Neutralizing Antibody Assay, Virus/Ab Incubation 18 hour [21]: > 50 µg/mL
IC50, Neutralizing Antibody Assay, Virus/Ab Incubation 1 hour [22]: > 50 µg/mL
IC50, Neutralizing Antibody Assay, Virus/Ab Incubation 18 hour [22]: > 50 µg/mL
